Reference: patent US20240218079A1, “PLASMA KALLIKREIN ANTIBODIES AND USES THEREOF” (Astria Therapeutics, Inc., priority 2021, published 2024)

How the values were obtained:
[1] = molecular target: human plasma kallikrein (human) (UniProt P03952)
[2] = molecular target: human plasma kallikrein (human) (UniProt P03952); remark: listed apart in the source

Sequence of human plasma kallikrein (human) (P03952 20-390 S143N limits assumed, chain 1 of 2): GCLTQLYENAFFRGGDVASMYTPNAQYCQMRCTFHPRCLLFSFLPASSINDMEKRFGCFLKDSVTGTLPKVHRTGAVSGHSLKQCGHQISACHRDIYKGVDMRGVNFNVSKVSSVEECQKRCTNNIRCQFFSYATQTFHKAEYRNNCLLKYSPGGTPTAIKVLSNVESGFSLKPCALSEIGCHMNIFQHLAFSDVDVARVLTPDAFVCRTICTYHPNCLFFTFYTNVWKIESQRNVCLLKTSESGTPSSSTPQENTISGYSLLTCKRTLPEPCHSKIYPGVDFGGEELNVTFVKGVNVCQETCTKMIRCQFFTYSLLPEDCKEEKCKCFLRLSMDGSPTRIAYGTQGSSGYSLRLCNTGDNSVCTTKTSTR
Sequence of human plasma kallikrein (human) (P03952 391-638 limits assumed, chain 2 of 2): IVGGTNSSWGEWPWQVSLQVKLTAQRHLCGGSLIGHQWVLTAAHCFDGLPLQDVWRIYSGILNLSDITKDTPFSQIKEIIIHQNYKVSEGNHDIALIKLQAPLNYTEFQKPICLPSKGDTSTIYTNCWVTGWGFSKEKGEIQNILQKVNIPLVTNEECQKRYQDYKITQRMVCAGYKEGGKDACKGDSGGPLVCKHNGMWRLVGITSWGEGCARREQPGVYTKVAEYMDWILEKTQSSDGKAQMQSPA

IC50 (read off the curve) [1]: 3 nM | IC50 (read off the curve), lower panel, 10 nM pKal [2]: 1e-08 M | IC50 (read off the curve), upper panel, 1 nM pKal [2]: 4e-09 M
B1: C1inh (protein, UniProt P05155 23-500, looked up, species assumed)
Plasma protease C1 inhibitor: NPNATSSSSQDPESLQDRGEGKVATTVISKMLFVEPILEVSSLPTTNSTTNSATKITANTTDEPTTQPTTEPTTQPTIQPTQPTTQLPTDSPTQPTTGSFCPGPVTLCSDLESHSTEAVLGDALVDFSLKLYHAFSAMKKVETNMAFSPFSIASLLTQVLLGAGENTKTNLESILSYPKDFTCVHQALKGFTTKGVTSVSQIFHSPDLAIRDTFVNASRTLYSSSPRVLSNNSDANLELINTWVAKNTNNKISRLLDSLPSDTRLVLLNAIYLSAKWKTTFDPKKTRMEPFHFKNSVIKVPMMNSKKYPVAHFIDQTLKAKVGQLQLSHNLSLVILVPQNLKHRLEDMEQALSPSVFKAIMEKLEMSKFQPTLLTLPRIKVTTSQDMLSIMEKLEFFDFSYDLNLCGLTEDPDLQVSAMQHQTVLELTETGVEAAAASAISVARTLLVFEVQQPFLFVLWDQQHKFPVFMGRVYDPRA
